Assay results published in patent US7056701.

Molecular target: formaldehyde-fixed human platelets
Test: inhibition of vWF/botrocetin-induced agglutination of fixed human platelets

Substance | IC50 [nM]
HSA-vWF 470-704 C471,474→G | < 10
HSA-vWF 470-713 C471,474→G | 20
